Results from patent publication US20170037083A1 (AVIXGEN, published 2017).
Where no end group is shown, it is not given here.

What was measured:
[1] = target: T1, VEGFR-2 expressed in HUVECs (human, UniProt P35968 20-1356); test: cell-based or functional assay
rhVEGFR-2 = target: T2, rhVEGFR-2 (human, UniProt P35968 20-764, limits assumed); test: SPR (BIAcore), rhVEGFR-2 immobilised on the chip, RLYE injected
T2 construct: Immobilised on the carboxymethylated dextran chip for SPR; also called recombinant human VEGFR-2; VEGF receptor-2
Protocol: Binding dynamics and affinity of RLYE to rhVEGFR-2 were evaluated with BIAcore AB (Sweden). A carboxymethylated dextran biosensor chip (CMS, BIAcore AB) was activated with 1-ethyl-3-(3-dimethylaminopropyl)carbodiimide and N-hydroxysuccinimide according to the manufacturer's manual. The rhVEGFR-2 (1 ng/μl, 10 mM Hepes, 150 mM NaCl, 3 mM EDTA, 0.005% Tween-20-containing HBS-EP buffer) was injected over the activated CMS chip for fixation. Various concentrations of an RLYE solution was injected over the rhVEGFR-2-fixed center chip with a flow rate of 25 μl/min, and binding and non-binding characteristics between RLYE and the rhVEGFR-2 were analyzed. The peptide bonds were measured in arbitrary response units, and after the injection of each sample (120 sec), the HBS-EP buffer was passed over a sensor surface to monitor dissociation. The equilibrium dissociation constant (Kd) was derived to a fixing step-combined model.
Meanwhile, the interaction between RLYE (SEQ ID NO: 2) and rhVEGFR-2 was examined by SPR analysis.

[2] = target: T1, VEGFR-2 expressed in HUVECs; test: flow cytometry (FACS) on HUVECs, FITC-RLYE 15 nM, VEGF-A 100 ng/ml added before or after
Protocol: HUVECs were cultured in a 60-mm culture plate for 24 hours. The cells were isolated from the plate with 5 mM EDTA-containing phosphate-buffered saline (PBS), washed with PBS three times, and suspended in 2% FBS/0.1% bovine serum albumin-containing PBS. Afterward, before or after the reaction with FITC-conjugated RLYE (15 nM), the cells were treated with VEGF (100 ng/ml), stored on ice for 30 minutes, fixed in 2% paraformaldehyde, and assessed with a fluorescence activated cell sorter (FACS Calibur, Becton Dickinson) by flow cytometry.
(§1) Subsequently, it was investigated whether RLYE (SEQ ID NO: 2) interacts with VEGFR-2 expressed in HUVECs. HUVECs were cultured with FITC-RLYE before or after VEGF-A treatment, and FACS was performed to examine an amount of RLYE (SEQ ID NO: 2) binding to the HUVECs. […] To examine binding between RLYE (SEQ ID NO: 2) and VEGF receptors, a pull-down assay was performed. […] Therefore, the binding between RLYE (SEQ ID NO: 2) and VEGFR-2 was identified as a strong bond having a small dissociation coefficient (194 nM), and it was also seen that RLYE (SEQ ID NO: 2) binds to VEGFR-2 at the same positions to which VEGF-A/C binds (immunoglobulin homology domains D2 and D3) (see FIG. 10A).

VEGFR-1 = target: T3, VEGFR-1 (human, UniProt P17948 27-1338); test: streptavidin-agarose pull-down from HUVEC lysate with biotin-labeled RLYE, immunoblot for VEGFR-1
T3 construct: whole, on cells; In detergent lysate of HUVECs in the pull-down assay; on IM-9 and RPMI 8226 cells and HUVECs in the functional assays; also called VEGF receptor-1
Protocol: HUVECs were lysed in a pull-down buffer [50 mM Tris-HCl (pH 8.0), 150 mM sodium chloride, 1.0% NP-40, 0.5% sodium deoxycholate and 0.1% SDS]. A lysate ([…] of proteins) was reacted with biotin-labeled RLYE (0.15 or 1.5 nM) for 1 hour, and reacted with streptavidin-agarose beads ([…]) at 4° C. for 1 hour. RLYE-binding proteins were isolated from the cell lysate through centrifugation, washed, and then boiled for 10 minutes. The bead-binding proteins were isolated by SDS-PAGE, and immunoblotting was performed with an antibody with respect to VEGFR-2 or VEGFR-1.
as §1

T1 sequence (P35968 20-1356): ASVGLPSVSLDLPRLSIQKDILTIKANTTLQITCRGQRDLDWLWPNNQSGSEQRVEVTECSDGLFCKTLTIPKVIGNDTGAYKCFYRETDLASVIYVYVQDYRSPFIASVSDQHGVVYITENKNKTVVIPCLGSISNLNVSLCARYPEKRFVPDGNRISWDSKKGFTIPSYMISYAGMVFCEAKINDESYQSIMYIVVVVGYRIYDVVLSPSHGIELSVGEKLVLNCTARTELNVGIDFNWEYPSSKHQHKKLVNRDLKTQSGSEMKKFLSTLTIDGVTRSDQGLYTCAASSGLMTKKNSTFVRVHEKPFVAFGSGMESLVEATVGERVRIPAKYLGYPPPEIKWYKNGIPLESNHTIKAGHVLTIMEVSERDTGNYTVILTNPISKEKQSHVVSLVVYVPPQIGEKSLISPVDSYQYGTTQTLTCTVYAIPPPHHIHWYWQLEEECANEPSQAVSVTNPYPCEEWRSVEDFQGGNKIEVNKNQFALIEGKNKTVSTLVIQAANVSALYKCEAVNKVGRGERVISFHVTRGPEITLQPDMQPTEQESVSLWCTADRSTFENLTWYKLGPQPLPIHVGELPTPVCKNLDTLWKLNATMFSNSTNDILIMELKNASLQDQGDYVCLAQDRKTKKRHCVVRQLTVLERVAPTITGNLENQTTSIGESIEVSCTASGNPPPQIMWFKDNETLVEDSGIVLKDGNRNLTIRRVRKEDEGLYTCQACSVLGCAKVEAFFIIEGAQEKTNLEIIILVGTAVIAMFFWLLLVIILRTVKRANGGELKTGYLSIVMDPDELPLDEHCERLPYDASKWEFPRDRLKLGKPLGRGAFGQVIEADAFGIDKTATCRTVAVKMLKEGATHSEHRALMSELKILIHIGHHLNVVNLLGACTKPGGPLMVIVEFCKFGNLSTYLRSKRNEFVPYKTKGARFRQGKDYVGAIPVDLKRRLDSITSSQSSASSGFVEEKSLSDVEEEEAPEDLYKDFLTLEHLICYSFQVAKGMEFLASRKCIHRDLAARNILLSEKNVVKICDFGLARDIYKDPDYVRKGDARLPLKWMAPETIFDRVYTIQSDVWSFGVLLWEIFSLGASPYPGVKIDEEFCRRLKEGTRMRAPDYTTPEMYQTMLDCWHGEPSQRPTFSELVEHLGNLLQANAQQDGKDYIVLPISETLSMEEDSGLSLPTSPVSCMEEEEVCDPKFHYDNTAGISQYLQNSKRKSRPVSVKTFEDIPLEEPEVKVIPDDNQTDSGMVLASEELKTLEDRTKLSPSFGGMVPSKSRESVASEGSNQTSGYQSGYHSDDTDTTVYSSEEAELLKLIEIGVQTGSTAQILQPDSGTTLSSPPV
T2 sequence (P35968 20-764 limits assumed): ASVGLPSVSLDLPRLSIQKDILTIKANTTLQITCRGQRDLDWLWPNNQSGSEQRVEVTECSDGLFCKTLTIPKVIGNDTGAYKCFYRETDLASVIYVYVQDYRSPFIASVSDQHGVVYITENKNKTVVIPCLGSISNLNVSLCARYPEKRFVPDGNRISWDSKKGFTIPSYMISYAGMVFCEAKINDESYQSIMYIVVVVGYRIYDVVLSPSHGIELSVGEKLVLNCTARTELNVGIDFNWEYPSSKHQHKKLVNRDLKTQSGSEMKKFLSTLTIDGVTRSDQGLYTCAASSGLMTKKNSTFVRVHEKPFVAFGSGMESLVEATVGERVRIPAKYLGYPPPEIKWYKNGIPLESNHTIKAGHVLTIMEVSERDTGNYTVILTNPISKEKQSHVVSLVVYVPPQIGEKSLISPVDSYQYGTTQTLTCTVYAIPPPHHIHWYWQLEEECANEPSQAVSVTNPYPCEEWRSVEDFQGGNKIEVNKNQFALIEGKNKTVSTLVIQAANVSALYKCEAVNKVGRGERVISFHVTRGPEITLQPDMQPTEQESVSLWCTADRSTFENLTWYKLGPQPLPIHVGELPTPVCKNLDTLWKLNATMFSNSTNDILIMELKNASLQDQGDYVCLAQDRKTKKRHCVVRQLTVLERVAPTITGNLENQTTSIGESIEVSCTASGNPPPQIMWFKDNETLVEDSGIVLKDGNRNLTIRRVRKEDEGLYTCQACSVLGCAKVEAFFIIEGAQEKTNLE
T3 sequence (P17948 27-1338): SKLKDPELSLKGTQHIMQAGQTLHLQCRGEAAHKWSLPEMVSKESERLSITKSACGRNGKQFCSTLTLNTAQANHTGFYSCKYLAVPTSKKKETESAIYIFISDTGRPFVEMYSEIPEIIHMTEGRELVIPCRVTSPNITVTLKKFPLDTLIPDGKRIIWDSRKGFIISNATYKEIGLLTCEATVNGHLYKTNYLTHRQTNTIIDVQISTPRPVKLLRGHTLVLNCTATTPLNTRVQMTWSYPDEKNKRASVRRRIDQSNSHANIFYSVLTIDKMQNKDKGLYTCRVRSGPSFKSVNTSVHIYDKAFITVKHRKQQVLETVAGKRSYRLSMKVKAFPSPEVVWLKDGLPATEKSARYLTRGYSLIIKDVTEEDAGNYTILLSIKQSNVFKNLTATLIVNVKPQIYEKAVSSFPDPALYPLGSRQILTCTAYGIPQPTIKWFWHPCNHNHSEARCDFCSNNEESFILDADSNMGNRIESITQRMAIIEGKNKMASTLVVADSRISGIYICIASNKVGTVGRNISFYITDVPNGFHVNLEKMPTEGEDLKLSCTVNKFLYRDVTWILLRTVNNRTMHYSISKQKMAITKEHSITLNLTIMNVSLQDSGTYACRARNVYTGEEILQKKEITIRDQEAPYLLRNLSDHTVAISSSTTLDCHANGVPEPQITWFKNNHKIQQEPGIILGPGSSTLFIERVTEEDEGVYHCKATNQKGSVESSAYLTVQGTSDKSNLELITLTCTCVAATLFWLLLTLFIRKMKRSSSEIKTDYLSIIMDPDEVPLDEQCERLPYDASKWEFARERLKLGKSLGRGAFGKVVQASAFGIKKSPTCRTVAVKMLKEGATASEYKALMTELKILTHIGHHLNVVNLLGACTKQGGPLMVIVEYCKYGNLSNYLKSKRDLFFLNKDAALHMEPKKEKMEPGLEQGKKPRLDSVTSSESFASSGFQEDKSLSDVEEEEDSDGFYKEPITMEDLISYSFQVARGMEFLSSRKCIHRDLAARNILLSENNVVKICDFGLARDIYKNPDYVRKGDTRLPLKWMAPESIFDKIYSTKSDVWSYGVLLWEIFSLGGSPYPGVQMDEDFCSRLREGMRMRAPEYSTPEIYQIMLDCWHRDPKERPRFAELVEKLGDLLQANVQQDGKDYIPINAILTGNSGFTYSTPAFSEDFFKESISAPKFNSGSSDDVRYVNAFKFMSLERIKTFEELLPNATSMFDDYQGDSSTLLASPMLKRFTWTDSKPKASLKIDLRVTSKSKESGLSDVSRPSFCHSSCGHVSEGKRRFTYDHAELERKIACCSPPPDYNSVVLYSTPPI

B1: RLYE peptide (SEQ ID NO: 2) (peptide)
peptide: RLYE
notes: Unlabelled synthetic tetrapeptide, analyte in the SPR assay and used in the cell assays
With B1 the “IC50 of VEGF-induced HUVEC migration (transwell)” value [1] was 0.06 nM, the “IC50 of VEGF-induced HUVEC proliferation ([3H]-thymidine incorporation)” value [1] was 0.08 nM and the Kd (rhVEGFR-2) was 9000 nM.

B2: FITC-conjugated RLYE (peptide)
peptide: RLYE
modifications: also: FITC-conjugated, site not given here
notes: Used at 15 nM in FACS and at 100 ng/ml in confocal microscopy on HUVECs; also called FITC-RLYE
B2: binds [2].

B3: biotin-labeled RLYE (peptide)
peptide: RLYE
modifications: also: biotin-labeled, site not given here
notes: Used at 0.15 or 1.5 nM in the pull-down from HUVEC lysate with streptavidin-agarose beads; also called biotinylated RLYE peptide
B3: no binding (VEGFR-1).
